Experimental data published in US20090060924A1 (Eli Lilly, published 2009).

B1: humanized anti-sclerostin monoclonal antibody 89 (antibody, human IgG4 S228P, kappa, V domains shown)
VH: EVQLVQSGAEVKKPGESLKISCKGSDFEIKDYYIHWVRQMPGKGLEWMGQIDAEDGETEYAPRFQGQVTISADKSISTAYLQWSSLKASDTAMYYCAREGYYYDGRDYWYFDVWGQGTTVTVSS
VL: EIVLTQSPATLSLSPGERATLSCSASSSVSYIHWYQQKPGQAPRLLIYSTSELASGIPARFSGSGSGTDFTLTISSLEPEDFAVYYCQQLSHLPLTFGGGTKVEIKR
notes: Full-length humanized antibody; Derived from chimeric parent 789
B2: humanized anti-sclerostin monoclonal antibody 88 (antibody, human IgG4 S228P, kappa, V domains shown)
VH: QVQLVQSGAEVKKPGASVKVSCKVSGFPIKDTFQHWVRQAPGKGLEWMGWSDPEIGDTEYASKFQGRVTMTEDTSTDTAYMELSSLRSEDTAVYYCATGDTTYKFDFWGQGTTVTVSS
VL: DIQMTQSPSSLSASVGDRVTITCKASQDVHTAVAWYQQKPGKAPKLLIYWASTRWTGVPSRFSGSGSGTDFTLTISSLQPEDFATYYCQQYSDYPWTFGGGTKVEIKR
notes: Full-length humanized antibody; Derived from chimeric parent 788
B3: humanized anti-sclerostin monoclonal antibody 86 (antibody, human IgG4 S228P, kappa, V domains shown)
VH: QVQLVQSGAEVKKPGSSVKVSCKASGYTFTDYFLNWVRQAPGQGLEWMGTIYPYHDGTTYSQKFKGRVTITADKSTSTAYMELSSLRSEDTAVYYCAREEEDGQFDYWGQGTTVTVSS
VL: DIQMTQSPSSLSASVGDRVTITCSASQGIQWYLNWYQQKPGKAPKLLIYYTSSLHSGVPSRFSGSGSGTDFTLTISSLQPEDFATYYCQQHSKLPRTFGGGTKVEIKR
notes: Full-length humanized antibody; Two heavy and two light chains per claim 3

Key:
[1] = target: T1, human sclerostin (human, UniProt Q9BQB4 24-213); assay: cell-based or functional assay
T1 sequence: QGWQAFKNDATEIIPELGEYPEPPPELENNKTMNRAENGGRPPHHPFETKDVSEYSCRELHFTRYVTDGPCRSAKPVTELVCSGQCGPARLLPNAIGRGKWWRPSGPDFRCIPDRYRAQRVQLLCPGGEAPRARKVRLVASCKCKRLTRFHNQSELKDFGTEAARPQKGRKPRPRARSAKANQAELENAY

[2] = target: T2, cynomologous monkey sclerostin (cynomologous monkey); assay: cell-based or functional assay
[3] = target: T1, human sclerostin; assay: KinExA 3000 equilibrium binding in solution, 25 C, 1:1 model
Procedure: (§1) Equilibrium binding studies between an anti-sclerostin antibody and either human, cynomologous (“cyno”) monkey or rat sclerostin are performed on a KinExA 3000 instrument (Sapidyne Instruments Inc.) under KD-controlled conditions. With this technique, a fixed concentration of antibody below its KD is mixed with various concentration of sclerostin protein and allowed to come to equilibrium. The fraction of free, unbound, antibody remaining in solution is probed by briefly exposing this equibrated mixture to sclerostin-coated beads followed by detection with a fluorescently labeled secondary antibody. Typically 2 μM of an anti-sclerostin antibody to be tested is mixed with varying concentrations of human, cyno, or rat sclerostin starting at 2-50 nM and doing three-fold serial dilutions in binding buffer (1× phosphate buffered saline solution, pH 7.4, 0.02% sodium azide and 1 mg/mL bovine serum albumin) containing 2 pM of the antibody to be tested. These solutions are allowed to reach equilibrium over two days at 25° C. The amount of unbound antibody is probed using human sclerostin-coated azlactone beads (Sapidyne Instruments Inc.). These beads are prepared by reacting 50 mg of dry azlactone beads with 50 mcg/ml human sclerostin in a 50 mM sodium carbonate buffer at pH 9.0-9.6 with overnight rotation. Beads are then allowed to settle and the supernatant is replaced with blocking solution (1 M Tris, pH 8.0, plus 10 mg/mL bovine serum albumin) and rotated for one hour. This bead stock is diluted 20-fold into binding buffer and used within three days. A KinExA 3000 instrument equilibrated at room temperature (ca 25° C.) is used for binding studies. Typically 6.25 mL of the equilibrated antibody/sclerostin solution are drawn over a packed human sclerostin-azlactone bead column at 0.25 mL/minute flow rate then rinsed with running buffer (1× phosphate buffered saline solution, pH 7.4 with 0.02% sodium azide). The fraction of free anti-sclerostin antibody bound to these beads is quantified by measuring fluorescence resulting from an injected labeled secondary antibody (Cy5-labeled goat anti-human Fab′2 antibody). Two replicate samples for each condition are analyzed and KD is determined by fitting data to a 1:1 binding model using KinExA Pro software.

[4] = target: T2, cynomologous monkey sclerostin; assay: as above
Procedure: as §1

[5] = target: T3, rat sclerostin (rat, UniProt Q99P67 24-213, limits assumed); assay: as above
T3 sequence (looked up): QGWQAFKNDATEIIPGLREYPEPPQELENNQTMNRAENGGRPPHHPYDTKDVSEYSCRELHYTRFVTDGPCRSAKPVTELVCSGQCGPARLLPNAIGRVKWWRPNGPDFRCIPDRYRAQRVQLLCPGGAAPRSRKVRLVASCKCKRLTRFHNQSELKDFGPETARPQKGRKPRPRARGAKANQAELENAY
Procedure: as §1

| Binder | IC50 (nM), bone specific alkaline phosphatase assay in C2C12 cells, using human sclerostin [1] | IC50 (nM), bone specific alkaline phosphatase assay in C2C12 cells, using cyno sclerostin [2] | Kd [3] | Kd [4] | Kd [5] |
| --- | --- | --- | --- | --- | --- |
| B1 | 25.1 nM | 34.4 nM | 0.3 pM | 1.4 pM | 0.4 pM |
| B2 |  | 23.7 nM |  | 75 pM | 2.2 pM |
| B3 | 25.5 nM | 31.6 nM | 0.6 pM | 1 pM | 0.1 pM |
